According to article PMC5496667:

Target: GFP-tagged Tubulin (fusion construct of Tubulin and GFP)
Assay: FRET or BRET

B1: DsRed-tagged Ccdc181 (FACS-FRET construct) (natural protein)
chain: MDEDKDIDSKESGEYEDDFEKDLEWLINDKEKSNGSTIEMACKKEDDLDQVLKENETETELGQQLSDPDNSPKDEALPRRNDFISVPSIQPLDPISDSDSENSFQDSKPENQKDLEDEEDEEVRRYIMEKIIEANKLLQTQEPVNDKRERKLKFKDKLVDLEVPPLEDSDTCKALLENETNMSGKLSQLCISGDLEQESVLVSVTDGSCEENDRKILVERDGKFELMNLQDIESQGFLPPISSANSVEHESSQLPLRAPNPSVGGIKKEESEAKGHVLPISPAGEPLAQVPQLLPNPKNRPSSAANPDVTKKARRSNHRIQSAGVSPVTSTYCLSPRQKELQKQLERKREKLKREEEQRKLEEENEKKKENEMVFKAWLQKKREQVIEMRRVQRAKQIEDMSSRQVNRDPQQAFRLWLKKKHEEQMKERKTEELRKQEECLFFLRGTEGRERAFRQWLRRKQIEKIAEQQAVKERARQLRLEARRSKQLQSSLYSIPEAKAFRFTDHYN
percent FRET positive cells: 29.4%
